# From patent US20160264649A1
# B1: PGT-128 (antibody, V domains shown)
# VH: QPQLQESGPTLVEASETLSLTCAVSGDSTAACNSFWGWVRQPPGKGLEWVGSLSHCASYWNRGWTYHNPSLKSRLTLALDTPKNLVFLKLNSVTAADTATYYCARFGGEVLRYTDWPKPAWVDLWGRGTLVTVSS
# VL: QSALTQPPSASGSPGQSITISCTGTSNNFVSWYQQHAGKAPKLVIYDVNKRPSGVPDRFSGSKSGNTASLTVSGLQTDDEAVYYCGSLVGNWDVIFGGGTKLTVL
# B2: PGT-130 (antibody, V domains shown)
# VH: QVQLQESGPGLVKPAETLSLTCSVSGESINTGHYYWGWVRQVPGKGLEWIGHIHYTTAVLHNPSLKSRLTIKIYTLRNQITLRLSNVTAADTAVYHCVRSGGDILYYYEWQKPHWFSPWGPGIHVTVSS
# VL: QSALTQPPSASGSLGQSVTISCNGTSSDIGGWNFVSWYQQFPGRAPRLIIFEVNKRPSGVPGRFSGSKSGNSASLTVSGLQSDDEGQYFCSSLFGRWDVVFGGGTKLTVL
# Key:
# Assay in all cases: cell-based or functional assay
# [1] = biological target: envelope of aMLV pseudovirus (negative control)
# [2] = biological target: HIV-1 Env of isolate 98CN006 (subtype CRF08_BC) (HIV-1)
# [3] = biological target: HIV-1 Env of pseudovirus isolate MGRM-G-001 (subtype G) (HIV-1)
# [4] = biological target: HIV-1 Env of isolate MGRM-D-014 (subtype D) (HIV-1)
# [5] = biological target: HIV-1 Env of isolate MGRM-D-005 (subtype D) (HIV-1)
# [6] = biological target: HIV-1 Env of isolate 92UG046 (subtype D) (HIV-1)
# [7] = biological target: HIV-1 Env of isolate MGRM-D-019 (subtype D) (HIV-1)
# [8] = biological target: HIV-1 Env of isolate MGRM-F1-004 (subtype F) (HIV-1)
# [9] = biological target: HIV-1 Env of pseudovirus isolate MGRM-G-019 (subtype G) (HIV-1)
# [10] = biological target: HIV-1 Env of isolate MGRM-D-008 (subtype D) (HIV-1)
# [11] = biological target: HIV-1 Env of isolate MGRM-F1-020 (subtype F) (HIV-1)
# [12] = biological target: HIV-1 Env of isolate MGRM-D-026 (subtype D) (HIV-1)
# [13] = biological target: HIV-1 Env of pseudovirus isolate MGRM-G-013 (subtype G) (HIV-1)
# [14] = biological target: HIV-1 Env of isolate MGRM-D-001 (subtype D) (HIV-1)
# [15] = biological target: HIV-1 Env of pseudovirus isolate MGRM-G-024 (subtype G) (HIV-1)
# [16] = biological target: HIV-1 Env of pseudovirus isolate MGRM-G-006 (subtype G) (HIV-1)
# [17] = biological target: HIV-1 Env of isolate MGRM-F1-010 (subtype F) (HIV-1)
# [18] = biological target: HIV-1 Env of pseudovirus isolate MGRM-G-004 (subtype G) (HIV-1)
# [19] = biological target: HIV-1 Env of isolate 92UG024 (subtype D) (HIV-1)
# [20] = biological target: HIV-1 Env of pseudovirus isolate MGRM-G-028 (subtype G) (HIV-1)
# [21] = biological target: HIV-1 Env of isolate MGRM-F1-006 (subtype F) (HIV-1)
# [22] = biological target: HIV-1 Env of isolate MGRM-D-028 (subtype D) (HIV-1)
# [23] = biological target: HIV-1 Env of pseudovirus isolate MGRM-G-016 (subtype G) (HIV-1)
# [24] = biological target: HIV-1 Env of isolate MGRM-D-013 (subtype D) (HIV-1)
# [25] = biological target: HIV-1 Env of isolate 98CN009 (subtype CRF07_BC) (HIV-1)
# [26] = biological target: HIV-1 Env of isolate MGRM-F1-012 (subtype F) (HIV-1)
# [27] = biological target: HIV-1 Env of isolate MGRM-F1-016 (subtype F) (HIV-1)
# [28] = biological target: HIV-1 Env of isolate MGRM-D-029 (subtype D) (HIV-1)
# [29] = biological target: HIV-1 Env of isolate MGRM-D-022 (subtype D) (HIV-1)
# [30] = biological target: HIV-1 Env of isolate MGRM-F1-008 (subtype F) (HIV-1)
# [31] = biological target: HIV-1 Env of pseudovirus isolate MGRM-G-011 (subtype G) (HIV-1)
# [32] = biological target: HIV-1 Env of isolate MGRM-D-011 (subtype D) (HIV-1)
# [33] = biological target: HIV-1 Env of isolate MGRM-D-012 (subtype D) (HIV-1)
# [34] = biological target: HIV-1 Env of isolate MGRM-F1-015 (subtype F) (HIV-1)
# [35] = biological target: HIV-1 Env of isolate 92UG114 (subtype D) (HIV-1)
# [36] = biological target: HIV-1 Env of isolate MGRM-F1-022 (subtype F) (HIV-1)
# [37] = biological target: HIV-1 Env of pseudovirus isolate MGRM-G-014 (subtype G) (HIV-1)
# [38] = biological target: HIV-1 Env of isolate MGRM-F1-013 (subtype F) (HIV-1)
# [39] = biological target: HIV-1 Env of pseudovirus isolate MGRM-G-025 (subtype G) (HIV-1)
# [40] = biological target: HIV-1 Env of isolate MGRM-F1-021 (subtype F) (HIV-1)
# [41] = biological target: HIV-1 Env of isolate MGRM-D-002 (subtype D) (HIV-1)
# [42] = biological target: HIV-1 Env of isolate MGRM-D-003 (subtype D) (HIV-1)
# [43] = biological target: HIV-1 Env of isolate 92UG001 (subtype D) (HIV-1)
# [44] = biological target: HIV-1 Env of pseudovirus isolate MGRM-G-015 (subtype G) (HIV-1)
# [45] = biological target: HIV-1 Env of isolate MGRM-D-021 (subtype D) (HIV-1)
# [46] = biological target: HIV-1 Env of pseudovirus isolate MGRM-G-009 (subtype G) (HIV-1)
# [47] = biological target: HIV-1 Env of isolate MGRM-D-024 (subtype D) (HIV-1)
# [48] = biological target: HIV-1 Env of isolate MGRM-D-016 (subtype D) (HIV-1)
# [49] = biological target: HIV-1 Env of isolate MGRM-F1-014 (subtype F) (HIV-1)
# [50] = biological target: HIV-1 Env of isolate MGRM-D-018 (subtype D) (HIV-1)
# [51] = biological target: HIV-1 Env of isolate MGRM-D-020 (subtype D) (HIV-1)
# [52] = biological target: HIV-1 Env of isolate MGRM-F1-017 (subtype F) (HIV-1)
# [53] = biological target: HIV-1 Env of isolate 92UG005 (subtype D) (HIV-1)
# [54] = biological target: HIV-1 Env of isolate MGRM-D-004 (subtype D) (HIV-1)
# [55] = biological target: HIV-1 Env of isolate MGRM-F1-023 (subtype F) (HIV-1)
# [56] = biological target: HIV-1 Env of pseudovirus isolate MGRM-G-017 (subtype G) (HIV-1)
# [57] = biological target: HIV-1 Env of isolate MGRM-F1-018 (subtype F) (HIV-1)
# [58] = biological target: HIV-1 Env of pseudovirus isolate MGRM-G-027 (subtype G) (HIV-1)
binder,measurement,setting,value
B1,IC50,[1],> 50 µg/mL
same,IC50 (neutralization),[2],0.015 µg/mL
same,IC50,[3],0.019 µg/mL
same,IC50 (neutralization),[4],0.013 µg/mL
same,IC50 (neutralization),[5],0.051 µg/mL
same,IC50 (neutralization),[6],> 50 µg/mL
same,IC50 (neutralization),[7],> 50 µg/mL
same,IC50 (neutralization),[8],0.027 µg/mL
same,IC50,[9],0.01 µg/mL
same,IC50 (neutralization),[10],0.033 µg/mL
same,IC50 (neutralization),[11],0.355 µg/mL
same,IC50 (neutralization),[12],> 50 µg/mL
same,IC50,[13],0.995 µg/mL
same,IC50 (neutralization),[14],0.138 µg/mL
same,IC50,[15],0.095 µg/mL
same,IC50,[16],> 50 µg/mL
same,IC50 (neutralization),[17],16.7 µg/mL
same,IC50,[18],> 50 µg/mL
same,IC50 (neutralization),[19],> 50 µg/mL
same,IC50,[20],0.008 µg/mL
same,IC50 (neutralization),[21],0.763 µg/mL
same,IC50 (neutralization),[22],> 50 µg/mL
same,IC50,[23],> 50 µg/mL
same,IC50 (neutralization),[24],8.85 µg/mL
same,IC50 (neutralization),[25],0.025 µg/mL
same,IC50 (neutralization),[26],0.007 µg/mL
same,IC50 (neutralization),[27],1.21 µg/mL
same,IC50 (neutralization),[28],> 50 µg/mL
same,IC50 (neutralization),[29],> 50 µg/mL
same,IC50 (neutralization),[30],> 50 µg/mL
same,IC50,[31],8.21 µg/mL
same,IC50 (neutralization),[32],0.007 µg/mL
same,IC50 (neutralization),[33],> 50 µg/mL
same,IC50 (neutralization),[34],> 50 µg/mL
same,IC50 (neutralization),[35],0.083 µg/mL
same,IC50 (neutralization),[36],4.54 µg/mL
same,IC50,[37],0.004 µg/mL
same,IC50 (neutralization),[38],12.7 µg/mL
same,IC50,[39],0.017 µg/mL
same,IC50 (neutralization),[40],> 50 µg/mL
same,IC50 (neutralization),[41],0.011 µg/mL
same,IC50 (neutralization),[42],0.019 µg/mL
same,IC50 (neutralization),[43],> 50 µg/mL
same,IC50,[44],> 50 µg/mL
same,IC50 (neutralization),[45],0.014 µg/mL
same,IC50,[46],> 50 µg/mL
same,IC50 (neutralization),[47],0.067 µg/mL
same,IC50 (neutralization),[48],> 50 µg/mL
same,IC50 (neutralization),[49],0.277 µg/mL
same,IC50 (neutralization),[50],0.008 µg/mL
same,IC50 (neutralization),[51],0.011 µg/mL
same,IC50 (neutralization),[52],11.7 µg/mL
same,IC50 (neutralization),[53],0.018 µg/mL
same,IC50 (neutralization),[54],24.9 µg/mL
same,IC50 (neutralization),[55],0.007 µg/mL
same,IC50,[56],0.319 µg/mL
same,IC50 (neutralization),[57],0.023 µg/mL
same,IC50,[58],0.313 µg/mL
B2,IC50,[1],> 50 µg/mL
same,IC50 (neutralization),[2],0.258 µg/mL
same,IC50,[3],0.0198 µg/mL
same,IC50 (neutralization),[4],0.061 µg/mL
same,IC50 (neutralization),[5],> 50 µg/mL
same,IC50 (neutralization),[6],> 50 µg/mL
same,IC50 (neutralization),[7],> 50 µg/mL
same,IC50 (neutralization),[8],0.023 µg/mL
same,IC50,[9],27.9 µg/mL
same,IC50 (neutralization),[10],> 50 µg/mL
same,IC50 (neutralization),[11],9.73 µg/mL
same,IC50 (neutralization),[12],> 50 µg/mL
same,IC50,[13],> 50 µg/mL
same,IC50 (neutralization),[14],> 50 µg/mL
same,IC50,[15],5.84 µg/mL
same,IC50,[16],> 50 µg/mL
same,IC50 (neutralization),[17],> 50 µg/mL
same,IC50,[18],> 50 µg/mL
same,IC50 (neutralization),[19],> 50 µg/mL
same,IC50,[20],0.074 µg/mL
same,IC50 (neutralization),[21],> 50 µg/mL
same,IC50 (neutralization),[22],0.825 µg/mL
same,IC50,[23],> 50 µg/mL
same,IC50 (neutralization),[24],0.429 µg/mL
same,IC50 (neutralization),[25],0.136 µg/mL
same,IC50 (neutralization),[26],> 50 µg/mL
same,IC50 (neutralization),[27],> 50 µg/mL
same,IC50 (neutralization),[28],> 50 µg/mL
same,IC50 (neutralization),[29],> 50 µg/mL
same,IC50 (neutralization),[30],0.065 µg/mL
same,IC50,[31],> 50 µg/mL
same,IC50 (neutralization),[32],0.019 µg/mL
same,IC50 (neutralization),[33],> 50 µg/mL
same,IC50 (neutralization),[34],> 50 µg/mL
same,IC50 (neutralization),[35],> 50 µg/mL
same,IC50 (neutralization),[36],> 50 µg/mL
same,IC50,[37],2.23 µg/mL
same,IC50 (neutralization),[38],> 50 µg/mL
same,IC50,[39],8.45 µg/mL
same,IC50 (neutralization),[40],> 50 µg/mL
same,IC50 (neutralization),[41],0.869 µg/mL
same,IC50 (neutralization),[42],0.651 µg/mL
same,IC50 (neutralization),[43],> 50 µg/mL
same,IC50,[44],> 50 µg/mL
same,IC50 (neutralization),[45],0.156 µg/mL
same,IC50,[46],> 50 µg/mL
same,IC50 (neutralization),[47],> 50 µg/mL
same,IC50 (neutralization),[48],> 50 µg/mL
same,IC50 (neutralization),[49],11.8 µg/mL
same,IC50 (neutralization),[50],0.049 µg/mL
same,IC50 (neutralization),[51],24.7 µg/mL
same,IC50 (neutralization),[52],> 50 µg/mL
same,IC50 (neutralization),[53],0.959 µg/mL
same,IC50 (neutralization),[54],1.21 µg/mL
same,IC50 (neutralization),[55],0.05 µg/mL
same,IC50,[56],> 50 µg/mL
same,IC50 (neutralization),[57],> 50 µg/mL
same,IC50,[58],4.14 µg/mL
